Laboratory results taken from the nanobody polyreactivity screen of Harvey et al. (2022).

Experiment: yeast display, Sf9 membrane polyspecificity reagent, FACS + sequencing; frameworks hold sequencing errors
In short: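 Galactose induction of a Saccharomyces cerevisiae BJ5465 synthetic nanobody display library ran 36–48 hours. The cells were then stained for 1 hour at 4 °C with 10% biotinylated, detergent-solubilized Sf9 membrane reagent, pulled down on streptavidin microbeads and FACS-sorted into low and high (top ~1%) gates on expression and reagent-binding fluorescence. Labels for polyreactivity follow the gate of origin.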

Row | Sequence | polyreactivity (PSR sort gate)
1 | QVHLVESGGGLVQAGGSLRLSCAASGFIFYSNSMGWYRPAPGKERELVAAISSGGGSTRYADSVKGRFTISRDNAKNTVYLQMNSLKPEDTAVYYCASRDGYTIFRSTRYYYWGEGTQVTVSS | high polyreactivity
2 | QVQLVESGGGLVQAGGSLRLSCAASGSIFLIYAMGWYRQAPGKERELVAAIDWGGGANTYYADSVKGRFTISRDNAKNTVYLQMNSLKPEDTAVYYCAVDSYTSGYEYWGQGTQVTVSS | low polyreactivity
3 | QVQLVESGGGLVQAGGSLRLSCAATGITFYPNGMGWYRPAPGKEREFVAAITSSGGSTYYADSVKGRFTISRDNAKNSVYLQMNSLKPEDTAVYYCAAQYYPISYYGYGYWGQGTQVTVSS | low polyreactivity
4 | QVHLVESGGGLVQAGGSLRLSCAASGIIFYLYAMGRYRQAPGKERELVAGITSGGDTKYADSVKGRFTISRDNAKNTVYLQMNSLKPEDTAVYYCATDSGSVWQRWGYANYDYWGQGTQVTVSS | low polyreactivity
5 | QVQLVESGGGLVQAGGSLRLSCAASGGTFSVNAMGWYRQAHGTERELVAAISWRGGSTYNADSVKGRFTISRDTAKNTFYLQMNSLKPEDTAVYYCAKYRYYYYWFNYWGQGTQVNVSS | high polyreactivity
6 | QVQLVESGGGLVQAGGSLRLSCAASGSTFYRNAMGWYRQAPGKERELVAAIRKTGGSTHYADSVKGRFTISRDNAKNTVYLQMNSLKPEDTAVYYCNATYIYGWYNYWGQGTQVTVSS | low polyreactivity
7 | QVQLVESGGGLVQAGGSLRLSCAASGSIFRRYAMGWYRQAPGKERELVAAISGSAGSTYYADSVKGRFTISRDNAKNTVYLQMNSLKPEDTAVYYCAADPDDGYDYWGQVTQVTVSS | low polyreactivity
8 | QVQLVESGGGLVQAGGSLRLSCAASGRIITYNAMGWYRQAPGKERELVAAISTTGGRTYYADSVKGRFTISRDNAKNTVYLQMNSLKPEDTAVYYCNAVLKRPLAYHVTYDYWGQGTQVTVSA | high polyreactivity
9 | QVQLVESGGGLVQEGGSLRLTCAASGIIFTINAMGWYRQAPGKERELVAAIYWGTGTTYYADSVKGRFTISRDNAKNTVYLQMNSLKPEDTAVYYCAADGYDTYGYWGQGTQVTVSS | low polyreactivity
10 | QVQLVESGGGLVQAGGRLRLSCAASGSIFGRYAMGRYRQAPGKERELVAAITWSATSTYYADYVKGRFTISRDNAKNTVYLQMNSLKPEDTAVYYCAVRTPRARYTYGSWGQGTQVTVSS | high polyreactivity
11 | QVQLVESGGGLVQAGGSLRLSCAASGSTFSQNAMGWYRQAPGKERELVAAITSGGITYYADSVKGRFTISRDNAKNTVYLQMNSLKPEDTAVYYCAADFWPSGRGVAFDYWGQGTQVTVSS | low polyreactivity
12 | QVQLVESGGGLVQAGGSLRLSCAASGSIFPYYAMGWYRQAPGKEREFVAAITISGGSTYYADSVKGRFTISRDNAKNTVYLQMNSLKPEDTAVYYCNADKGYVYGDTFYQSGGYYSWGQGTQVTVSS | low polyreactivity
13 | QVQLVESGGGLVQAGGSLRLSCAASGSIFYSYAMGWYRQAPGKERELVAVITRGGSTNYADSVKGRFTISRDNAKNTVYLQMNSLKPEDTAVYYCNKDRYGKVFRYPPYYRSSPYDYWGQGTQVTVSS | high polyreactivity
14 | QVQLVESGGGLVQAGGSLRLSCAASGRTSWPYAMGWYRQAPGKERELVAGISRNGGRTYYADSVKGRFTISRDNAKNTVYLQMNSLKPEDTAVYYCNAYPPSRHDYWGQGTQVTVSS | high polyreactivity
15 | QVQLVESGGCLVQAGGSLRLSCAASGRILLHNAMGWYRQAPGKERELVAAITNGGSTYYADSVKGRFTISRDNAKNTVYLQMNSLKPEDTAVYYCAARTRLAQYSRGRYRYDYWGQGTQVTVSS | high polyreactivity
16 | QVHLVESGGGLVQAGGSLRLSCAASGRTFDLNAMGWYRQAPGKERELVAGISSSGGRTYYADSVKGRFTISRDNAKNTVYLQMNSLIPEDTAVYYCAKVYPSYVLRKYDYWGQGTQVTVSS | high polyreactivity
17 | QVQLVESGGGLVQAGGSLRLSCAASGSTFTSNAMGWYRQAPGKEREFVAAISVGGGITYYADSVKGRFTISRDNAKISVYLQMNSLKPEDTAVYYCAADGEYPHSEDFEYWGQGTQVTVSS | low polyreactivity
18 | QVQLVESGGGLVQAGGSLRLSCAASGRTFYSYAMGWYRQAPGKERELVASITSTGSTYYADSVKGRFTISRDNAKNTVYLQMNSLKPEDTAVYYCAARRQPRYSQRSTYYYWGQGTQVTVSS | high polyreactivity
19 | QVQLVESGGGLVQAGGSLRLSCAASGGIFYYNAMGWYRQAPGKERELLAAITFSGGGTYYADSVKGRFTISRDNAKNTVYFQMNSLKPEDTAVNYCAAKFYRYAWFLGYDYWGQGTQVTVSS | high polyreactivity
20 | QVQLVESGGGLVQAGGSLRLRCGASGFIFDQYAMGWYRQAPGKERELVAAITYSGGGTYYADSVKGRFTISRDNAKNTVYLQMNSLKPEDTAVYYCADLFGYSLYDAQYDYWGQGTQVTVSS | low polyreactivity
21 | QVQLQESGGGLVQAGGSLRLSCAASGSIFQLHIMCWYRQAPGKERESVAAISYGTSTYYADSVKGRFTICRDNAKNTVYLQMNSPKTDDTAVYYCAALFLVSKHHHYWGEGTQVTVSS | low polyreactivity
22 | QVQLVESGGGLVQAGGSLRLSCAASGRTFVGNAMGWYRQAPGKERELVAAITVNGVRTYYADSVKGRFTSSRDNAKNTVYLQMNSLKPEATAVYYCARDALHYAGSLHRYGYWGQGTQVTVSS | low polyreactivity

Row | Sequence | polyreactivity (PSR sort gate)
23 | QVQLVESGGGLVQAGGSLRLSCAASGNTSVPYAMGWYRQAPGKERELVARITWSTGRTYYADSVKGRFTISRDNAKNTVYLQMNSLKPVDTAVYYCATEAWLPGSGGDYWGQVTQVTVSS | low polyreactivity
24 | QVKLVESGGGLVQAGGSLRLSCAASGRIFGYNAMGWYRQAPGKERELVAAISRSGGTTYYADSVKGRFTISRDNSKNTVNLQMNRLKPEDTEVYYCAAYYRTRVPYDMDYWGQGTQVTVSS | high polyreactivity
25 | QVQLVESGGGLVQAGGSLRLSCAASGITFGFNAMGWYRQAPGKERELVAAITWSVGRTYYADSVKGRFTISRDNAKNTVYLQMNSLKPEDTAVYYCAKEFVAGDDYFAYDYWGQGTQVTVSS | low polyreactivity
26 | QVQLVESGRGLVQAGGSLRLSCAASGITFGWYAMGWYRQPPGKATELVASISSSGSTNYADSVKGRFTNSRDNAKNTVYLQMNSLKPEDTAVYYCNKDYLLRHYYIYVIEGDYWGQGTQVTVSS | low polyreactivity
27 | QFHLVESGGGLVQAGGSLRLSCAASGSIFYPYDMGWYRQAPGKERELVATINWSSGRTNYADSVKGRFTISRDYAKNTVYLQMNSLKPEDSAVYYCNARFYYTLYYDYWGQGTQVTVSS | high polyreactivity
28 | QVHLVESGGGLVQAGGSLPLSCAASGRTFIYNTMGWYRPAPGKERELVAAITRNGGSTNYADSVKGRFTISRDNAKNTVYLQMNSLKPEDTAVYYCAAKYIRFARSRDYWGQGTQVTVSS | high polyreactivity
29 | QVQLVESGGGLVQAGGSLRLSCAASGSILEPYAMGWYRQAPGKERELVAAISSSGGSTRYADSVKGRFTISRDNAKNTVYLQMNSLKPEDTAVYYCAARFRAKFNYWGQGTQVTVSS | low polyreactivity
30 | QVQLVESGGGLVQAGGSLRLSCAASGRIFNEYGMGWYRQAPGKERELVAAITDGTTTYYADSVKGRFTISRDNAKNTVYLQMNSLKPEDTAVYYCAASSTWYGYYIFVFRAYDYWGQGTQVTVSS | low polyreactivity
31 | QVQLVESGGGLVQAGGSLRLSCAASGSIFRPNVMGWYRQAPGKERELVAAITGSGGSTYYADSVKGRFTISRDNAKNTVYLQMNSLKPEDTAVYYCNARTVSRGRYTYDYWGQGTQVTVSS | low polyreactivity
32 | QVQLVESGGGLVQAGGSLRLSCAASGITFNVYAMGWYRQAPGKERELVAAISYNGGRTYYADSVKGRFTISRDNAKNTVYLPMNSLKPEDTAVYYCAAQWPWGPYDYWGQGTQVTVSS | high polyreactivity
33 | QVQLVESGGGLVQAGGSLRLSCAASGSIFLSNAMGCYRQAPGKEREIVADIDWTGGDTYYADSVKGRFTISRDNAKNTVYLQMNSLKPEDTAVYYCAADYGYRNLLTEYSYWGQGTQVTVSS | low polyreactivity
34 | QVQLVESGGGLVQAGGSLRLSCAASGFTFDYYAMGWYRQAPGKERELVAAISWSGSTTYYADSVKGRFTISRDNAKNTVYLQMNSLKPEDTAVYYCATNLDRPFDYWGQGTQVTVSS | high polyreactivity
35 | QVQLVESGGGLVQAGGSLRLSCAASGRILPFNAMGWYRPAPGKERELVAAIRWRGSSTYYADSVKGRFTISRDNAKNTVYLQMNSLKPEDTAVYYCAAPSSVRGKVISADYGYWGQGTQVTVSS | high polyreactivity
36 | QVQLVESGGGLVQAGGSLRLSCAASGLIFDPYAMGWYRQAPGKERELVAAITWSGDSTSYADSVKGRFTISRDNAKNTVYLQMNSLKPEDTAVYYCAADGWSRSWGYWVHYGYWGQGTQVTVSS | low polyreactivity
37 | QVQLVESGGGLVQAGGSLRLSCAASGRILPSNAMGWYRQAPGKERELVAAIRSGDRTYYADSVKGRFTISRDNAKNTVYLQMNSLKPEDTAVYYCAAFYHHYYRYDYWGQGTQVTVSS | low polyreactivity
38 | QVQLVESGGGLVQAGGSLRLSCAASGSTFGRYGMGWYSQAPGKERELVAAISKNAGSTYYADSVKGRCTISRDNAKNTVYLQMNSLKPEDTAVYYCAADWRTKGYDSLGQGTQVTVSS | high polyreactivity
39 | QVHLVESGGGLVQAGGSLRLSCAASGYIFTIYAMGWYRQAPGKERELVAAITSGGSTSYADSVKGRFTISRDNAKNTVYLQMNSLKPVDTAVYYCAAASVYAGLYYLWVYTGYDYWGQGTQVTVSS | high polyreactivity
40 | QVQLVESGGGLVQAGGSLRLSCAASGIISSVYAMGWYRQAPVKERELVAAISGSGGSTYYADSVKGRFTISRDNAKNTVYLQMNSLTPEDTAVYYCAKGYQYQGNSYGYWGQGTQVTVSS | low polyreactivity
41 | QVQLVESGGRLVQAGGSLRLSCAASGRIFRYYTMGWYRQAPGKERELVAAITRRGGITNYADSVKGRFTISRDNAKNTVYLQTNSLKPEDTAVYYCAAKYVSQGYDYWGQGTQVTVSS | high polyreactivity
42 | PVQLVESGGGLVQAGGSLRLSCAASGRTFNSYPMVWYRQAPGKERELVADITSSGGSTYADSVKGRFTISRDNAKNTVYLQMNSLKPEDTAVYYCAVDNISNWAVENDYWGQGTQVTVSS | low polyreactivity
43 | QVQHVESGGGLVQAGGSLRLSCASSGITFPDYSMGWYRQAPGKERELVAGISSTGDSTYYADSVKGRFTISRDNGKKTVYLQMNSLKPEDTAVYYCNAAQERPIIILFSKYDYWGQGTQVTVSS | low polyreactivity
